The values below come from patent US20150010525A1, “Catalytic Tagging System to Study Macro-Molecular Interactions Using Engineered Ubiquitin Ligase and Ubiquitin-Like Proteins to Facilitate Substrate Identification” (THE REGENTS OF THE UNIVERSITY OF CALIFORNIA, priority 2012, published 2015).

For assay [1], the target named is T1, GST-XIAP (Homo sapiens, UniProt P98170).
T1 construct: made in house
Put plainly: In vitro GST pull down. The assay is classed as binding. The conditions noted are these: recombinant proteins. The source says:
FIG. 12 illustrates the identification of the proteolytic form of PGAM5 as an XIAP and cIAP1 substrate in vitro. […] Overall, 15 unique peptides from PGAM5 were recovered and account for 43% of the entire protein sequence. (B) An example of LC-MS/MS spectrum from endogenous PGAM5 N-terminal peptide after subtiligase labeling and positive enrichment. A non-natural amino acid, 2-aminobutyric acid (Abu), is a designed tag showing characteristic labeling by subtiligase. (C) PGAM5 is cleaved into a truncated form in cells. Jurkat cells were transiently transfected with C-terminal Myc tagged full length PGAM5 or PGAM5 (Δ2-24). […] (D) N-terminal amino acid sequence alignment of PGAM5(Δ24) and other known evolutionarily conserved IBM sequences. Reaper, Hid, and Grim are Drosophila proteins that bind DIAP1, the Drosophila IAP. Amino acids are colored according to their chemical properties. (E) XIAP binds PGAM5(Δ24) but not the full length PGAM5. Recombinant GST fused XIAP, PGAM5(FL), and PGAM5(Δ24) were used for in vitro GST pull down experiments. (F) PGAM5(Δ24) binds to XIAP and cIAP1 independent of the RING domain. […] The resins were washed and proteins were eluted and analyzed with SDSPAGE and coomassie blue staining. […] The ubiquitination assay was performed in vitro and PGAM5 is detected with an anti-His antibody.

Assay [2] addresses T2, XIAP (Homo sapiens, UniProt P61081+P98170).
T2 construct: The N-terminus (residues 1-434) of XIAP was then fused via a flexible Gly-Gly-Ser-Gly linker to the NEDD8 E2, Ubc12; GST (N, cleaved yes); made in house; host or cells: E. coli BL21 (DE3)
Put plainly: SILAC mass spectrometry screen for XIAP substrates with NEDDylator^XIAP in apoptotic Jurkat cell lysate. The format is biochemical. The conditions noted are these: Heavy lysate with Ubc12. As to the method: Jurkat cells were grown in media containing either light or heavy isotopes of lysine and arginine and induced to undergo apoptosis with STS. Light cell extracts were incubated with the respective catalytic tagging system for each of the two IAPs and the heavy extracts labeled only with the wild-type NEDD8 E2, Ubc12. 64 mg regular L-Lys and 83.6 mg L-Arg.HCl were added to 1 liter RPMI-1640 minus L-Lys and L-Arg (Thermo/Pierce), 10% fetal bovine serum (FBS) to generate “Light” medium. 100 mg ^13C6^15N2 L-Lys.2HCl and 86 mg ^13C6 L-Arg.HCl (Cambridge Isotope) were added to the same amount of medium to generate the “Heavy” medium. Jurkat cells were cultured separately in “Light” or “Heavy” medium for 7 days to allow for thorough isotope incorporation. For IAP substrate identification, 400 million cells were treated with 2 μM STS for 4 hours, harvested, lysed in M-PER mammalian protein extraction buffer (Thermo/Pierce) in the presence of protease inhibitors (100× ProteoBlock cocktail, Fermentas) and mixed with cell lysate prepared from 400 million untreated cells. The NEDDylated proteins were isolated under denaturing conditions via the HB-NEDD8 tag using a tandem affinity pull down procedure (Tagwerker et al., Mol Cell Proteomics 5:737-748 (2006)) (FIG. 11). Purified NEDDylated proteins were trypsinized and analyzed with tandem mass spectrometry (LC-MS/MS).
For SILAC experiments, Jurkat cells were cultured separately in “Light” (supplemented with regular Lys and Arg) or “Heavy” (supplemented with ^13C6^15N2 Lys and ^13C6 Arg) medium for 7 days to allow for thorough isotope incorporation. Apoptotic “Light” and “Heavy” cell extracts were prepared individually. The lysates were cleared by spinning and then diluted in 50 mM HEPES pH 7.4, 150 mM NaCl to 5 mg/ml and supplemented with 5 mM ATP, 10 mM MgCl2. Endogenous NEDD8 E1 is cell lysate was used to catalyze the reaction. HB-NEDD8 was added to both lysate at mass ratio 1:500; the catalytic tagging system was added to the “Light” lysate at mass ratio 1:1000. Equal molar of Ubc12 was added to the “Heavy” lysate. […] NEDDylated proteins were separated by one-dimensional SDS-PAGE, and trypsinized for LC-MS/MS analysis.
For liquid chromatography—Tandem mass spectrometry (LC-MS/MS) analysis, the tryptic peptides were first desalted and concentrated with a C18 Ziptip (Millipore). LC-MS/MS was carried out by reverse phase LC interfaced with a LTQ-Orbitrap (ThermoFisher Scientific) hybrid mass spectrometer. A nanoflow HPLC (NanoAcquity UPLC system, Waters Corporation) was equipped with a trap column (180 μm×20 mm, 5 μm SymmetryC18, from Waters) and an analytical column (100 μm×100 mm, 1.7 μm BEH130C18, from Waters). […]

T1 sequence (P98170 whole entry): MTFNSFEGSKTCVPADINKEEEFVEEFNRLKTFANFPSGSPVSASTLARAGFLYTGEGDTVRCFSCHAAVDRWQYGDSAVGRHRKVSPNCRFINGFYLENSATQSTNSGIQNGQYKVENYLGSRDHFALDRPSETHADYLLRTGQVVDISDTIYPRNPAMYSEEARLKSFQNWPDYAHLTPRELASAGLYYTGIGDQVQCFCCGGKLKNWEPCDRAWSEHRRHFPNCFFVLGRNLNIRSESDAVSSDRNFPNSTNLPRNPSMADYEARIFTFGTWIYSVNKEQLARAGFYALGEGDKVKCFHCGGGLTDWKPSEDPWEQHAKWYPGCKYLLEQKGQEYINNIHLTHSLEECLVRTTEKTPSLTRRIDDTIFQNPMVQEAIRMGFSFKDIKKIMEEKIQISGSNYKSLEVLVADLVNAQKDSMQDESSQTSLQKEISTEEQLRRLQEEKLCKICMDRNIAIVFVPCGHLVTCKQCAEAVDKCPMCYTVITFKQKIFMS
T2 sequence (P98170+P61081 fused): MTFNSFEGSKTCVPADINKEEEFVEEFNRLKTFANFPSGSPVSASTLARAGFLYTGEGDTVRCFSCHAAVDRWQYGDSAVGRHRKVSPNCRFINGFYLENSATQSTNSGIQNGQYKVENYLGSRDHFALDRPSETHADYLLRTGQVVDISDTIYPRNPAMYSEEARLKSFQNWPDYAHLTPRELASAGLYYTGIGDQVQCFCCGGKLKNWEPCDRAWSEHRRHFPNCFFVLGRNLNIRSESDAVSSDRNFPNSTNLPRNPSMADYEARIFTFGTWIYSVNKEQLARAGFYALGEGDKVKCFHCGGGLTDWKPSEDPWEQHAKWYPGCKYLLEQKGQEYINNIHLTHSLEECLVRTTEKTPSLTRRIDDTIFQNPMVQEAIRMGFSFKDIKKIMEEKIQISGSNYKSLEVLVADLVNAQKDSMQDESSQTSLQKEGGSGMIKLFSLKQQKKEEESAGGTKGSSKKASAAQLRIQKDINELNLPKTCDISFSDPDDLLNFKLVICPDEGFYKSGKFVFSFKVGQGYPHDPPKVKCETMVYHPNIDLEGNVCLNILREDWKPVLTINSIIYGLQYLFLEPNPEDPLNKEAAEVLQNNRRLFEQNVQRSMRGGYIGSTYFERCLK

B1: Serine/threonine-protein phosphatase PGAM5, mitochondrial: phosphoglycerate mutase family member 5, dimeric protein phosphatase (protein, UniProt Q96HS1 1-289, looked up)
chain: MAFRQALQLAACGLAGGSAAVLFSAVAVGKPRAGGDAEPRPAEPPAWAGGARPGPGVWDPNWDRREPLSLINVRKRNVESGEEELASKLDHYKAKATRHIFLIRHSQYHVDGSLEKDRTLTPLGREQAELTGLRLASLGLKFNKIVHSSMTRAIETTDIISRHLPGVCKVSTDLLREGAPIEPDPPVSHWKPEAVQYYEDGARIEAAFRNYIHRADARQEEDSYEIFICHANVIRYIVCRALQFPPEGWLRLSLNNGSITHLVIRPNGRVALRTLGDTGFMPPDKITRS
modifications: full-length
notes: phosphoglycerate mutase family member 5, dimeric protein phosphatase
With B1, the “binding to XIAP (pull down)” value in assay [1] is recorded as “not the full length PGAM5 was pulled down”. Also, in assay [2], the “L/H (Light/Heavy ratio)” value is given as 5.88.
